Reference: patent US20050070470A1 (ADMINISTRATORS OF THE TULANE EDUCATIONAL FUND, published 2005)
*1 amine or outer side, *2 acyl side, *3 side chain or, on linkers, in order; H or OH if unused. Bridges are numbered along the chain shown (N, C = ends). Where no end group is shown, it is not given here. [ ]: non-standard residue; d: D form. MTXCOO‑CH2CO = methotrexate-acetyl; 4Pal = N[C@@H](Cc1ccncc1)C(=O)O; Suc = O=C(CCC(=O)[*:2])[*:1]; hSer = N[C@@H](CCO)C(=O)O; Nle = CCCC[C@H](N)C(=O)O; Nva = CCC[C@H](N)C(=O)O; Abu = CC[C@H](N)C(=O)O

Target: somatostatin subtype 2 rat receptor (rat, UniProt P30680 1-369)
Sequence (P30680 whole entry): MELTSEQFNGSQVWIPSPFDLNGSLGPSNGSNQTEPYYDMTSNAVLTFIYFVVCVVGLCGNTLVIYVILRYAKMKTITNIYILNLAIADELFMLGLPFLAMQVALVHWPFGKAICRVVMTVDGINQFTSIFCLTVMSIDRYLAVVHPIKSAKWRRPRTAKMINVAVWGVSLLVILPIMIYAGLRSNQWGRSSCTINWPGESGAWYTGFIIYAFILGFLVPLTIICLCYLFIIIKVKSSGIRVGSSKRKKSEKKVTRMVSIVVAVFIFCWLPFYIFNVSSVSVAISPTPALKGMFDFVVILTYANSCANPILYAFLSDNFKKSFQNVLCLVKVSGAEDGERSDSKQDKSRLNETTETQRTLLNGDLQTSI
Assay: cell-based or functional assay

Binder	IC50 (nM), inhibition of GH release from primary cultures of rat pituitary cells [nM]
[dS][dS][dS][dS][dS]K[dY][dS]CF[dW]KTCT-NH2 (disulfide 9-14; not fully specified; printed as D-Ser-D-Ser-D-Ser-D-Ser-D-Ser-L-Lys-D-Tyr-D-Ser-cyclo[L-Cys-L-Phe-D-Trp-L-Lys-L-Thr-L-Cys]-L-Thr-NH2) [D-Ser-D-Ser-D-Ser-D-Ser-D-Ser-L-Lys-D-Tyr-D-Ser-cyclo[L-Cys-L-Phe-D-Trp-L-Lys-L-Thr-L-Cys]-L-Thr-NH2]	0.086
[dQ][dQ][dQ][dQ][dQ][dQ][dQ][dQ][dQ][dQ]K[dY][dY]CF[dW]KTCT-NH2 (disulfide 14-19; N-terminus assumed; SMILES C[C@@H](O)[C@H](NC(=O)[C@@H]1CSSC[C@H](NC(=O)[C@@H](Cc2ccc(O)cc2)NC(=O)[C@@H](Cc2ccc(O)cc2)NC(=O)[C@H](CCCCN)NC(=O)[C@@H](CCC(N)=O)NC(=O)[C@@H](CCC(N)=O)NC(=O)[C@@H](CCC(N)=O)NC(=O)[C@@H](CCC(N)=O)NC(=O)[C@@H](CCC(N)=O)NC(=O)[C@@H](CCC(N)=O)NC(=O)[C@@H](CCC(N)=O)NC(=O)[C@@H](CCC(N)=O)NC(=O)[C@@H](CCC(N)=O)NC(=O)[C@H](N)CCC(N)=O)C(=O)N[C@@H](Cc2ccccc2)C(=O)N[C@H](Cc2c[nH]c3ccccc23)C(=O)N[C@@H](CCCCN)C(=O)N[C@@H]([C@@H](C)O)C(=O)N1)C(N)=O)	0.24
{3‑N,N‑dimethylaminobenzoyl}-[dS][dS][dS][dS][dS][dS][dS][dS][dS][dS][dS][dS][dS][dS][dS]K[dY][dY]CF[dW]KTCT-NH2 (disulfide 19-24)	0.27
[dS][dS][dS][dS][dS][Nle][dY][dS]CF[dW]KTCT-NH2 (disulfide 9-14; N-terminus assumed; SMILES CCCC[C@H](NC(=O)[C@@H](CO)NC(=O)[C@@H](CO)NC(=O)[C@@H](CO)NC(=O)[C@@H](CO)NC(=O)[C@H](N)CO)C(=O)N[C@H](Cc1ccc(O)cc1)C(=O)N[C@H](CO)C(=O)N[C@H]1CSSC[C@@H](C(=O)N[C@H](C(N)=O)[C@@H](C)O)NC(=O)[C@H]([C@@H](C)O)NC(=O)[C@H](CCCCN)NC(=O)[C@@H](Cc2c[nH]c3ccccc23)NC(=O)[C@H](Cc2ccccc2)NC1=O)	0.094
[dS][dS][dS][dS][dS][4Pal][dY][dS]CF[dW]KTCT-NH2 (disulfide 9-14; N-terminus assumed; SMILES C[C@@H](O)[C@H](NC(=O)[C@@H]1CSSC[C@H](NC(=O)[C@@H](CO)NC(=O)[C@@H](Cc2ccc(O)cc2)NC(=O)[C@H](Cc2ccncc2)NC(=O)[C@@H](CO)NC(=O)[C@@H](CO)NC(=O)[C@@H](CO)NC(=O)[C@@H](CO)NC(=O)[C@H](N)CO)C(=O)N[C@@H](Cc2ccccc2)C(=O)N[C@H](Cc2c[nH]c3ccccc23)C(=O)N[C@@H](CCCCN)C(=O)N[C@@H]([C@@H](C)O)C(=O)N1)C(N)=O)	0.18
[dS][dS][dS][dS][dS]Q[dY][dS]CF[dW]KTCT-NH2 (disulfide 9-14; N-terminus assumed; SMILES C[C@@H](O)[C@H](NC(=O)[C@@H]1CSSC[C@H](NC(=O)[C@@H](CO)NC(=O)[C@@H](Cc2ccc(O)cc2)NC(=O)[C@H](CCC(N)=O)NC(=O)[C@@H](CO)NC(=O)[C@@H](CO)NC(=O)[C@@H](CO)NC(=O)[C@@H](CO)NC(=O)[C@H](N)CO)C(=O)N[C@@H](Cc2ccccc2)C(=O)N[C@H](Cc2c[nH]c3ccccc23)C(=O)N[C@@H](CCCCN)C(=O)N[C@@H]([C@@H](C)O)C(=O)N1)C(N)=O) [D-Ser-D-Ser-D-Ser-D-Ser-D-Ser-L-Gln-D-Tyr-D-Ser-cyclo[L-Cys-L-Phe-D-Trp-L-Lys-L-Thr-L-Cys]-L-Thr-NH2]	0.45
[dS][dS][dS][dS][dS]D[dY][dS]CF[dW]KTCT-NH2 (disulfide 9-14; N-terminus assumed; SMILES C[C@@H](O)[C@H](NC(=O)[C@@H]1CSSC[C@H](NC(=O)[C@@H](CO)NC(=O)[C@@H](Cc2ccc(O)cc2)NC(=O)[C@H](CC(=O)O)NC(=O)[C@@H](CO)NC(=O)[C@@H](CO)NC(=O)[C@@H](CO)NC(=O)[C@@H](CO)NC(=O)[C@H](N)CO)C(=O)N[C@@H](Cc2ccccc2)C(=O)N[C@H](Cc2c[nH]c3ccccc23)C(=O)N[C@@H](CCCCN)C(=O)N[C@@H]([C@@H](C)O)C(=O)N1)C(N)=O) [D-Ser-D-Ser-D-Ser-D-Ser-D-Ser-L-Asp-D-Tyr-D-Ser-cyclo[L-Cys-L-Phe-D-Trp-L-Lys-L-Thr-L-Cys]-L-Thr-NH2]	7.55
succinate-[dD][dS][dS][dS][dS][dS][Nle][dY][dS]CF[dW]KTCT-NH2 (disulfide 10-15)	0.52
Succinate-[dS][dS][dS][dS][dS]S[dY][dS]CF[dW]KTCT-NH2 (disulfide 9-14)	5.6
{MTXCOO‑CH2CO}-[dK][dY]K[dY][dK]CF[dW]KTCT-NH2 (cysteine pairing not given here) [MTXCOO-CH2CO-D-Lys-D-Tyr-Lys-D-Tyr-D-Lys-Cys-Phe-D-Trp-Lys-Thr-Cys-Thr-NH2]	0.62
succinate-[dS][dS][dS][dS][dS][Abu][dY][dS]CF[dW]KTCT-NH2 (disulfide 9-14)	0.61
[dS][dS][dS][dS][dS]T[dY][dS]CF[dW]KTCT-NH2 (disulfide 9-14; N-terminus assumed; SMILES C[C@@H](O)[C@H](NC(=O)[C@@H]1CSSC[C@H](NC(=O)[C@@H](CO)NC(=O)[C@@H](Cc2ccc(O)cc2)NC(=O)[C@@H](NC(=O)[C@@H](CO)NC(=O)[C@@H](CO)NC(=O)[C@@H](CO)NC(=O)[C@@H](CO)NC(=O)[C@H](N)CO)[C@@H](C)O)C(=O)N[C@@H](Cc2ccccc2)C(=O)N[C@H](Cc2c[nH]c3ccccc23)C(=O)N[C@@H](CCCCN)C(=O)N[C@@H]([C@@H](C)O)C(=O)N1)C(N)=O) [D-Ser-D-Ser-D-Ser-D-Ser-D-Ser-L-Thr-D-Tyr-D-Ser-cyclo[L-Cys-L-Phe-D-Trp-L-Lys-L-Thr-L-Cys]-L-Thr-NH2]	0.72
Suc-[dD][dS][dS][dS][dS][dS]T[dY][dS]CF[dW]KTCT-NH2 (disulfide 10-15; SMILES C[C@@H](O)[C@H](NC(=O)[C@@H]1CSSC[C@H](NC(=O)[C@@H](CO)NC(=O)[C@@H](Cc2ccc(O)cc2)NC(=O)[C@@H](NC(=O)[C@@H](CO)NC(=O)[C@@H](CO)NC(=O)[C@@H](CO)NC(=O)[C@@H](CO)NC(=O)[C@@H](CO)NC(=O)[C@@H](CC(=O)O)NC(=O)CCC(=O)O)[C@@H](C)O)C(=O)N[C@@H](Cc2ccccc2)C(=O)N[C@H](Cc2c[nH]c3ccccc23)C(=O)N[C@@H](CCCCN)C(=O)N[C@@H]([C@@H](C)O)C(=O)N1)C(N)=O)	5.17
[dS][dS][dS][dS][dS][hSer][dY][dS]CF[dW]KTCT-NH2 (disulfide 9-14; N-terminus assumed; SMILES C[C@@H](O)[C@H](NC(=O)[C@@H]1CSSC[C@H](NC(=O)[C@@H](CO)NC(=O)[C@@H](Cc2ccc(O)cc2)NC(=O)[C@H](CCO)NC(=O)[C@@H](CO)NC(=O)[C@@H](CO)NC(=O)[C@@H](CO)NC(=O)[C@@H](CO)NC(=O)[C@H](N)CO)C(=O)N[C@@H](Cc2ccccc2)C(=O)N[C@H](Cc2c[nH]c3ccccc23)C(=O)N[C@@H](CCCCN)C(=O)N[C@@H]([C@@H](C)O)C(=O)N1)C(N)=O)	0.55
mercaptoacetate-GG[dD][dS][dS][dS][dS][dS][4Pal][dY][dS]CF[dW]KTCT-NH2 (disulfide 12-17)	0.97
[dS][dS][dS][dQ][dS][dS][dS][dQ][dS][dS][dS][dQ][Nva][dY][dS]CF[dW]KTCT-NH2 (disulfide 16-21; N-terminus assumed; SMILES CCC[C@H](NC(=O)[C@@H](CCC(N)=O)NC(=O)[C@@H](CO)NC(=O)[C@@H](CO)NC(=O)[C@@H](CO)NC(=O)[C@@H](CCC(N)=O)NC(=O)[C@@H](CO)NC(=O)[C@@H](CO)NC(=O)[C@@H](CO)NC(=O)[C@@H](CCC(N)=O)NC(=O)[C@@H](CO)NC(=O)[C@@H](CO)NC(=O)[C@H](N)CO)C(=O)N[C@H](Cc1ccc(O)cc1)C(=O)N[C@H](CO)C(=O)N[C@H]1CSSC[C@@H](C(=O)N[C@H](C(N)=O)[C@@H](C)O)NC(=O)[C@H]([C@@H](C)O)NC(=O)[C@H](CCCCN)NC(=O)[C@@H](Cc2c[nH]c3ccccc23)NC(=O)[C@H](Cc2ccccc2)NC1=O)	0.93
{MTXCOO‑CH2CO}-[dS][dS][dS][dS][dS]K[dY][dY]CF[dW]KTCT-NH2 (cysteine pairing not given here) [MTXCOO-CH2CO-(D-Ser)5-Lys-D-Tyr-D-Tyr-Cys-Phe-D-Trp-Lys-Thr-Cys-Thr-NH2]	0.16
[dS][dS][dS][dS][dS]K[dY][dY]CF[dW]KTCT-NH2 (disulfide 9-14; N-terminus assumed; SMILES C[C@@H](O)[C@H](NC(=O)[C@@H]1CSSC[C@H](NC(=O)[C@@H](Cc2ccc(O)cc2)NC(=O)[C@@H](Cc2ccc(O)cc2)NC(=O)[C@H](CCCCN)NC(=O)[C@@H](CO)NC(=O)[C@@H](CO)NC(=O)[C@@H](CO)NC(=O)[C@@H](CO)NC(=O)[C@H](N)CO)C(=O)N[C@@H](Cc2ccccc2)C(=O)N[C@H](Cc2c[nH]c3ccccc23)C(=O)N[C@@H](CCCCN)C(=O)N[C@@H]([C@@H](C)O)C(=O)N1)C(N)=O) [D-Ser-D-Ser-D-Ser-D-Ser-D-Ser-L-Lys-D-Tyr-D-Tyr-cyclo[L-Cys-L-Phe-D-Trp-L-Lys-L-Thr-L-Cys]-L-Thr-NH2]	0.14
